Entries after “also recorded” stand apart in the source; their conditions may differ.
Key:
[1] = system: MDA-MB231 cells expressing MT4-MMP; test: In vitro 3D Matrigel proliferation assay with DNA quantification; assay type: cell-based, human; conditions: 7 days; for effect on MT4-MMP-mediated mitogenic effect (cell proliferation, DNA content): 3D Matrigel matrix, signaling pathway inhibitors added to the culture medium
Protocol: The medium was changed every three days.
Inhibition of MT4-MMP-dependent mitogenic effect of cancer cells was performed in 3D culture matrix. […] The medium was changed every three days.

[2] = system: MDA-MB 231 control (CTR) cells; conditions: 3D Matrigel matrix, 7 days
Protocol: Matrigel® mixed with an equal volume of culture medium was coated onto 24-well plates (300 μl/plate). Cells (104) suspended in 250 μl of medium were mixed with the same volume of cold Matrigel® and seeded on the previously coated Matrigel® layer. In some assays, growth factor-free Matrigel® was used (BD, Bioscience). For signaling pathway inhibition in the 3D culture model, cells were incubated in Matrigel® matrix and 24 h later several inhibitors were added to the culture medium at the indicated concentrations:
SB203580, Genistein, U0126, Wortmannin, PP2, SP600125, AG538 (Sigma), PD0332991 (Axon Medchem, Groningen, The Nederlands), MDL-12, GF109203x, AG1478 (Calbiochem, Gibbstown, N.J.). The medium was changed every three days. After 7 days, cells were recovered from 3D cultures upon treatment with 500 μl of Dispase (BD, Bioscience) for 2 h at 37° C. After two washes in PBS, cell pellet was diluted in PBS (1 ml) and sonicated.

MT3-MMP (MMP16) = biological target: T1, MT3-MMP (MMP16) (Homo sapiens, UniProt P51512); test: Antibody specificity by Western blot; assay type: binding
T1 construct: but not to MT1-MMP, MT3-MMP and MMP 2 catalytic domains
T1 sequence (P51512 120-291 limits assumed, species assumed): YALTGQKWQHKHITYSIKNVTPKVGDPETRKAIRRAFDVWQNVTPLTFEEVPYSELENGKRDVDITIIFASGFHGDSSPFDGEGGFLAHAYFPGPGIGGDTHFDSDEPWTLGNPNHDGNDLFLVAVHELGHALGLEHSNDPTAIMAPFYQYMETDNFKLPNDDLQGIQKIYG

[3] = biological target: T2, recombinant catalytic domain of MT4-MMP (MT4CAT) (Homo sapiens, UniProt Q9ULZ9); test: Inhibition of MT4-MMP enzymatic activity: cleavage of quenched fluorogenic peptide substrate (TACE substrate M-2255); assay type: biochemical; conditions: scFV clones at 14 nM; substrate 30 μM
T2 construct: Enzymatic activity of the recombinant catalytic domain of MT4-MMP (MT4CAT) was monitored
T2 sequence (Q9ULZ9 126-295 limits assumed): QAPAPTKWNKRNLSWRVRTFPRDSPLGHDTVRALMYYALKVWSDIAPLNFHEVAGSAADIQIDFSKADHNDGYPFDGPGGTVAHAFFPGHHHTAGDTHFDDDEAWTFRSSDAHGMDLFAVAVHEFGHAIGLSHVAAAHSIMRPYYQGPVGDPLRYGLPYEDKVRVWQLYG
Protocol: Inhibition of enzymatic activity of MT4-MMP was quantified by measuring the cleavage of quenched fluorogenic peptide substrate by the recombinant catalytic domain of MT4-MMP (MT4-CAT) in the presence or absence of MT4-MMP blocking antibodies (scFV). MT4-CAT (4.5 μM) was pre-incubated with MT4-MMP blocking antibodies (14 nM) for 30 min at 4° C. in buffer containing (50 mM Tris-HCl (pH 7.4); 5 mM CaCl2; ZnCl2 1 μM; 0.005%, Brij, 2% DMSO) before incubation with 30 μM of the fluorogenic substrate (pro-tumor necrosis factor-α converting enzyme (TACE) fluorogenic peptide substrate; Mca-(endo-1a-Dap(Dnp))-TNF-α (−5 to +6) amide (human), M-2255, Bachem AG, Switzerland).
Neutralizing capacity of antibodies. The enzymatic activity of the recombinant catalytic domain of MT4-MMP (MT4CAT) was monitored by the cleavage of quenched fluorogenic peptide substrate pro-tumor necrosis factor-α converting enzyme (TACE) (M-2255, BACHEM) and using Luminescence spectrometer (SPECTRA MAX; GIMINI). […] The cleavage of quenched fluorogenic peptide was monitored by measuring relative fluorescence units (RFU) during the incubation time (seconds) in the absence of inhibitor (MTCAT+No inhibitor) or in the presence of BB94 (20 μM) or of the scFV clones (14 nM). […]

MT1-MMP (MMP14) = biological target: T3, MT1-MMP (MMP14) (Homo sapiens, UniProt P50281); test: Antibody specificity by Western blot; assay type: binding
T3 construct: but not to MT1-MMP, MT3-MMP and MMP 2 catalytic domains

[4] = biological target: T4, MT4-MMP inactivated by mutation in its catalytic site (E249A) (Homo sapiens, UniProt Q9ULZ9, E249A); test: Antibody specificity by Western blot; assay type: binding; conditions: scFV 1 μg/ml
T4 sequence (Q9ULZ9 126-565 E249A): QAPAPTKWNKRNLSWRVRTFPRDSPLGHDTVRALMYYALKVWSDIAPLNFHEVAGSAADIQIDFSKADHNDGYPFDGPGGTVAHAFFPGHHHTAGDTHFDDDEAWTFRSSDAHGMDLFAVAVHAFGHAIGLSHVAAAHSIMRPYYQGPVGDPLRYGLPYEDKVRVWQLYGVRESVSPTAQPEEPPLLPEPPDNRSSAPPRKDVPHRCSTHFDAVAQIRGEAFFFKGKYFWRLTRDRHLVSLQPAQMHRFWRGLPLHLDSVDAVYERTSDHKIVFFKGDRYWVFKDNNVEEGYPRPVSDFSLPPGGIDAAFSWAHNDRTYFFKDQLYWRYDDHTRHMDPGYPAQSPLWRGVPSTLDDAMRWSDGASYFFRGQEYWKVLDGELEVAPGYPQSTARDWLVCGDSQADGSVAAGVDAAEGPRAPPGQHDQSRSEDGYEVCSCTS
Protocol: (§1) In detail, antibody specificity was assessed by Western blot. Recombinant MT4-MMP (1 μg) was incubated with purified scFV clones (1 μg/ml) that contain a myc tag. Membranes were first incubated with a monoclonal mouse anti-myc antibody (clone 9E10, Sigma M5546) (1/1000) and then with HRP conjugated anti-mouse antibody (FIG. 14 A).

[5] = biological target: T5, active wild type recombinant MT4-MMP (Homo sapiens, UniProt Q9ULZ9); test: Antibody specificity by Western blot; assay type: binding; conditions: scFV 1 μg/ml
T5 construct: made in house
T5 sequence (Q9ULZ9 126-565): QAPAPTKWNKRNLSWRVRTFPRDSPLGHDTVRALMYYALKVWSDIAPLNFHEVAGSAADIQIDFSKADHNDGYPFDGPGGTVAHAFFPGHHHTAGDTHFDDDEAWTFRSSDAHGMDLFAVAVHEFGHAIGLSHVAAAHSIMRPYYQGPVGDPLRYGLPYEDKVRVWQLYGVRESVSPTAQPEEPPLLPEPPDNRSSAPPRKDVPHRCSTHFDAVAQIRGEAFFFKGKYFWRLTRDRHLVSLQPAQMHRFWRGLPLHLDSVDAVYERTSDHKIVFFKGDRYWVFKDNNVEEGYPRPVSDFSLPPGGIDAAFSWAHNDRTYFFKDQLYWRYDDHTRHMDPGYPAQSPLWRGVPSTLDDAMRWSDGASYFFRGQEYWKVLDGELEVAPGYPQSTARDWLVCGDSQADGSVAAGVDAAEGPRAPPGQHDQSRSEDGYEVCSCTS
Protocol: as §1

MMP2 = test: Antibody specificity by Western blot; assay type: binding
[6] = biological target: T6, inactive mutated form of MT4-MMP (E249A) (Homo sapiens, UniProt Q9ULZ9, E249A); test: Antibody specificity by ELISA; assay type: binding
T6 sequence (Q9ULZ9 126-565 E249A): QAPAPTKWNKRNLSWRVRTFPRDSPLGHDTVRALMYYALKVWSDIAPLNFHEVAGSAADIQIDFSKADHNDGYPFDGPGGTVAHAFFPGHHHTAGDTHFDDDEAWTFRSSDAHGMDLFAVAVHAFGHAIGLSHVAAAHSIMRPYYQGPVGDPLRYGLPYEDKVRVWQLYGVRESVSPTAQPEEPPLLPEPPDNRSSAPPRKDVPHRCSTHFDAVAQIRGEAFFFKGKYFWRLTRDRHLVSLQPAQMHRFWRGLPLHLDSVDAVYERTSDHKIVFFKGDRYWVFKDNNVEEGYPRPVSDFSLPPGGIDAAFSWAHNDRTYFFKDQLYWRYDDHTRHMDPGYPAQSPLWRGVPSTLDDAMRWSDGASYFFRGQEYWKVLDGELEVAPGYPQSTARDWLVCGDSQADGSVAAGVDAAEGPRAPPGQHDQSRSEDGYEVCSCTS
Excerpt: (§2) The specificity of K4H7 antibody evaluated by ELISA. […] BSA (column 2) and the absence of protein (column 1: blank) were used as control.

[7] = biological target: T7, recombinant wild-type MT4-MMP (Homo sapiens, UniProt Q9ULZ9); test: Antibody specificity by ELISA; assay type: binding; conditions: 3 μg protein
T7 construct: made in house
T7 sequence (Q9ULZ9 126-565): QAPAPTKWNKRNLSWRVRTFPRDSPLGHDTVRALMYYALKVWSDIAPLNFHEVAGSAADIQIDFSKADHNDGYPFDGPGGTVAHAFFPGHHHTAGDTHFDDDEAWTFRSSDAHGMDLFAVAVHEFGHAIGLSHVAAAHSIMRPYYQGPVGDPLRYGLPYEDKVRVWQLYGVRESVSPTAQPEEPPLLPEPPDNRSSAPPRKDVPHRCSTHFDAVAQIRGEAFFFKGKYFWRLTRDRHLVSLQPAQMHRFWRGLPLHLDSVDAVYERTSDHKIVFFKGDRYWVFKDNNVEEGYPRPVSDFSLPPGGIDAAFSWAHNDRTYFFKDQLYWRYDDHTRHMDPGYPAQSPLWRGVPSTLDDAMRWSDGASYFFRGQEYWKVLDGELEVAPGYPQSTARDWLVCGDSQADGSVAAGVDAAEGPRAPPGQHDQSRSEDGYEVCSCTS
Excerpt: as §2

[8] = biological target: T8, recombinant MT4-CAT protein (Homo sapiens, UniProt Q9ULZ9); test: Antibody affinity on immobilized protein in 96 well-plates (absorbance at 450 nm); assay type: binding; conditions: 0-3 μg of MT4-CAT per well
T8 construct: Enzymatic activity of the recombinant catalytic domain of MT4-MMP (MT4CAT) was monitored
T8 sequence (Q9ULZ9 126-295 limits assumed): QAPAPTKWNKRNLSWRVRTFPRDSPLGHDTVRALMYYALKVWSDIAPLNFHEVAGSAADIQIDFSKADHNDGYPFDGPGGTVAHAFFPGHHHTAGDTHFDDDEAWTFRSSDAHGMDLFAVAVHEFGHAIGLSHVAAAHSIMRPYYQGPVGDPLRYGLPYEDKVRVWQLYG
Protocol: For determining antibody affinity recombinant MT4-CAT protein and BSA (background) was immobilized on 96 well-plates [0-3 μg of MT4-CAT in 15 mM Na-bicarbonate (pH 9.6)/well] for 18 h, at +4° C. Non-specific blockage was carried out by incubation of 3% (w/v) BSA/PBS, 0.01% (v/v) Tween-20, for 1 h, at +4° C. The detection of the bound antibody was carried out with 1:2000 diluted mouse anti-myc antibody (clone 9E10, Sigma M5546) incubated for 1 h, at room temperature, followed by 15 min incubation with HRP-conjugated anti-mouse antibody. After adding TMB substrate, the absorbance was measured at 450 nm Multiskan FC (Thermo Scientific, Rockford, USA).

CC(C)(C)n1nc(-c2ccc(Cl)cc2)c2c(N)ncnc21 [PP2, 4-amino-5-(4-chlorophenyl)-7-(t-butyl)pyrazol[3,4-d]pyrimidine]
effect on MT4-MMP-mediated mitogenic effect (cell proliferation, DNA content) [1]: No change

C#Cc1cccc(Nc2ncnc3cc(OCCOC)c(OCCOC)cc23)c1 [erlotinib]
inhibition of proliferation of cancer cells (DNA content) ([1]; single treatment 1 μM, 3D Matrigel): partially inhibited; also recorded: reduced cell proliferation

CC(=O)c1c(C)c2cnc(Nc3ccc(N4CCNCC4)cn3)nc2n(C2CCCC2)c1=O [PD0332991]
effect on MT4-MMP-mediated mitogenic effect (cell proliferation, DNA content) [1]: inhibited

N#CC(=C(/N)Sc1ccccc1N)/C(C#N)=C(\N)Sc1ccccc1N [U0126]
effect on proliferative rate in control cells [2]: without affecting the proliferative rate | effect on MT4-MMP-mediated mitogenic effect (cell proliferation, DNA content) [1]: markedly inverted the proliferative phenotype

COc1cc2ncnc(Nc3cccc(Cl)c3)c2cc1OC [AG1478]
effect on MT4-MMP-mediated mitogenic effect (cell proliferation, DNA content) [1]: significantly reduced

N#C/C(=C\c1ccc(O)c(O)c1)C(=O)c1ccc(O)c(O)c1 [AG538]
effect on MT4-MMP-mediated mitogenic effect (cell proliferation, DNA content) [1]: No change

O=c1c(-c2ccc(O)cc2)coc2cc(O)cc(O)c12 [genistein]
effect on MT4-MMP-mediated mitogenic effect (cell proliferation, DNA content) [1]: strongly inhibited

B1: K4H7: human scFv antibody that specifically binds and neutralizes MT4-MMP; VH SEQ ID NO: 26, VL SEQ ID NO: 27, complete scFv SEQ ID NO: 28 (protein)
scFv: QVQLVQSGGGLVKPGRSLRLSCTASGFTFGDYAMSWFRQAPGKGLEWVGFIRSKAYGGTTEYAASVKGRFTISRDDSKSIAYLQMNSLKTEDTAVYYCTRGSSGWFLNWFDPWGQGTLVTVSSLEGGGGSGGGGSGGGGSELETTLTQSPATLSLSPGERATLSCRASQSISSSYLAWYQHKPGQAPRLLIYGASRRATGIPDRFSGSGSGTDFSLTISRLEPEDFAVYYCLHYGSSKWTFGQGTKVEIKR
recognition of MT3-MMP (MMP16) (MT3-MMP (MMP16)): do not recognize | inhibition of MT4-MMP enzymatic activity (neutralizing capacity) [3]: able to inhibit; also recorded: inhibited completely | recognition of MT1-MMP (MMP14) (MT1-MMP (MMP14)): do not recognize | recognition of MT4-MMP E249A mutant [4]: recognized specifically | recognition of wild type recombinant MT4-MMP [5]: recognized specifically | reduction of cell proliferation (DNA content) ([1]; single treatment 20 μg/ml, 3D Matrigel): reduced cell proliferation | recognition of MMP2 (MMP2): do not recognize | binding to inactive MT4-MMP (E249A) [6]: binds specifically | binding to wild-type MT4-MMP [7]: binds specifically | affinity / capacity to bind recombinant MT4-MMP, compared among the three scFV clones [8]: highest capacity to bind; also recorded: highest affinity
